These results are taken from patent publication US20030119735.

Data set [1] has as its system T1, 4-[Succinimidopropionoyl-(H-Cys-βAla-Arg-Arg-Met-Lys-Trp-Lys-Lys-NH2)]epipodophyllotoxin.
T1 sequence: CRRMKWKK

Data set [2] has as its system T2, 4-[Succinimidopropionoyl-(H-Cys-βAla-Arg-Arg-Met-Lys-Trp-Lys-Lys-NH2)]podophyllotoxin.
T2 sequence: CRRMKWKK

The test system of data set [3] is T3, 4′-Demethyl-4-[4″-aminoanilino-(succinimidopropionoyl)-(H-Cys-bAla-Arg-Arg-Met-Lys-Trp-Lys-Lys-NH2)]-epipodophyllotoxin.
T3 sequence: CRRMKWKK

Data set [4] relates to T4, 4′-Demethyl-4-[acetyl-(H-Cys-βAla-Arg-Arg-Met-Lys-Trp-Lys-Lys-NH2)]epipodophyllotoxin.
T4 sequence: CRRMKWKK

Data set [5] deals with T5, H-βAla-Arg-Arg-Met-Lys-Trp-Lys-Lys-NH2.
T5 sequence: RRMKWKK

With “purified recombinant human topoisomerase II”, the “Activity observed (topoisomerase II cleavage and relaxation assays on plasmid DNA)” value in data set [1] is on record as “IC”; in data set [2], “-”; in data set [3], “I”; in data set [4], “IC”; in data set [5], “-”.
